How the values were obtained:
Assay in all cases: SPR
[1] = biological target: T1, CPXV CPXV199 (cowpox virus (CPXV))
[2] = biological target: T2, VARV B7 (variola virus (VARV))
[3] = biological target: T3, VACV B5 (vaccinia virus (VACV), UniProt Q01227 18-317)
[4] = biological target: T1, CPXV CPXV199; remark: listed apart in the source
[5] = biological target: MPXV B6 protein (monkeypox virus (MPXV))
[6] = biological target: T2, VARV B7; remark: listed apart in the source
[7] = biological target: T3, VACV B5; remark: listed apart in the source

B1: hMB621 (antibody, V domains shown)
VH: QVQLVQSGGGVVQPGRSLRLSCVASGFSISTYPLHWVRQAPGKGLEWVAVISHDGRNKYYADSVKGRFSISRDNSKNTVYLQMNSLRVEDTAVYYCARAYPYAFDVWGQGTLVTVSS
VL: EIVLTQSPATLSVSPGETATLSCRASQSVRNDLAWYQQKPGQAPRLLIYGASTRASGIPARFSGSGSGTEFTLTISSLQSEDFAIYYCQQYKDWPPWTFGQGTKVEIK
Kd [1]: 2.6 nM | Kd [2]: 5.1 nM | Kd [3]: 2.8 nM | koff [4]: 0.00011 s⁻¹ | koff [5]: 9.7e-05 s⁻¹ | koff [6]: 0.00019 s⁻¹ | koff [7]: 0.00017 s⁻¹

B2: hMB668 (antibody, V domains shown)
VH: QVQLVQSGAEVKKPGSSVKVSCKSSGGTFSDYAINWVRQAPGQGLEWMGRILPIVGVPNYAQKFQGRVTITADKSSSTAYKEVSGLRSEDTAVYYCARRSGINGHGLDVWGQGTTVIVSS
VL: DIVMTQSPLSLPVTPGEPASISCRSSQSLLNTNGYNYLEWYLHKPGQSPQLLIYLGSHRASGVPDRFSGSGSGTDFTLKISRAEPEDVGVYYCMQTLQTQGYTFGQGTKLEIK
Kd [1]: 27.2 nM | Kd [2]: 15.8 nM | Kd [3]: 3.1 nM | koff [4]: 0.00011 s⁻¹ | koff [5]: 7.8e-05 s⁻¹ | koff [6]: 5.5e-05 s⁻¹ | koff [7]: 8.2e-05 s⁻¹
